{"source": "paper PMC11890025", "tested_on": "SaAREB6-His (Santalum album)", "assay": "MST", "details": "MST: 20 nM labelled SaAREB6, 150 mM NaCl, 20 mM Tris-HCl pH 8.0, 25 C; EMSA: LightShift Chemiluminescent kit, buffer not stated"}
{"substance": "SaCYP736A167 promoter R2 (MST)", "values": [{"measurement": "Kd", "value": 24.8, "unit": "µM"}]}
{"substance": "SaCYP736A167 promoter R1 (MST)", "values": [{"measurement": "Kd", "value": 4.81, "unit": "µM"}]}
